Assay results as given in the nanobody polyreactivity screen of Harvey et al. (2022).

Assay: yeast display, Sf9 membrane polyspecificity reagent, FACS + sequencing; frameworks hold sequencing errors
Procedure, shortened: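 In a synthetic yeast display library (Saccharomyces cerevisiae BJ5465), nanobody expression was induced with galactose for 36–48 hours. FACS gates were set low and high (top ~1%) using anti-HA fluorescence for expression and streptavidin fluorescence for binding of the Sf9 membrane reagent. Each polyreactivity label is drawn from the gate of origin.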

Sequence | polyreactivity (PSR sort gate)
QVQLVESGGGLVQAGGSLRLSCAASGRIFYANTMGWYRQAPGKERELVAAITGDGSTYADSVKGRFTISRDNAKNTVYLQMNSLKPEDTAVFYCAAEVDYSAFDYWGQGTQVTVSS | low polyreactivity
QVQLVESGGGLVQAGGSLRLSCAASGRIFYDYAMGWYRQAPGKERELVAAISGSGGSTYYADSVKGRFTISRDNAKNTVYLQMNSLKPEDTAVYYCNRYTTRYYPGGDYWGQGTQVTVSS | high polyreactivity
QVQLVESGGGLVQAGGSLRLSCAASGRIFYDYTMVWYRQAPGKERDLVATITSGGNTNYADSVKGRFTISRDNAKNTVYLPMNSLKPVDTAVYYCAPSYSAKRVKTGRVWYGYWGQGTQVTVSS | low polyreactivity
QVQLVESGGGLVQAGGSLRLSCAASGRIFYEYAMGWYRQAPGKERELVAAITRGDSTYYADSVKGRCTISRDNAKNTVYLQMNSLKPEDTAVYYCNAGVFDYSGDSNYWGQGTQVTVSS | low polyreactivity
QVQLVESGGGLVQAGGSLRLSCAASGRIFYFNAMAWYRQAPGKERELVAAISGSGGDTYYADSVKGRFTISRDNAKNTVYLQMNRLKPEETAVYYCAAEVYTWGQGTQVSVSS | low polyreactivity
QVQLVESGGGLVQAGGSLRLSCAASGRIFYFNAMGWYRQAPGKEREFVASINSIGDSTYYADSVKGRFTISRDNAKNTVYIQMNSQKPEDTAVYYCKADHGVINYRLDYWGHGTQVTVSS | low polyreactivity
QVQLVESGGGLVQAGGSLRLSCAASGRIFYFNAMGWYRQAPGKERELVAAISGSGGDTYYADTVKGRFTISRDNAKNTVYLQMNCLKPEDTAVYYCAAEVYTWGQGTQVTVSS | low polyreactivity
QVQLVESGGGLVQAGGSLRLSCAASGRIFYFNAMGWYRQAPGKERELVAAISWRGGSTYYADSVKGRFTISRDYAKNTVYLQMNSLKPEDTAVYYCNAVLWGYWPGYDYWGQGTQVTVSS | high polyreactivity
QVQLVESGGGLVQAGGSLRLSCAASGRIFYFNGMGWDRQAPGKERELVAAITWNTGSTYYADSVKGRFTISRDNAKNTVYLQMNSLKPEDTAVYYCNAPWAGQHPTLWKGGYWGQGTQVTVSS | low polyreactivity
QVQLVESGGGLVQAGGSLRLSCAASGRIFYFNTMGWYRQAPGKERELVAAISRSGTSTYYADSVKGRFTISRDNAKNTVYLQMNSLKPEDTAVYYCAAVKSYYKLDYWGQGTQVTVSS | high polyreactivity
QVQLVESGGGLVQAGGSLRLSCAASGRIFYFYAMGWYRQAPGKERELVAAISTSGGSTYYADSVKGRFTISRDNAKITVYLQMNSLKPEDTAVYYCAARFRYYGSEYDYWGQGTQVTVSS | low polyreactivity
QVQLVESGGGLVQAGGSLRLSCAASGRIFYFYAMGWYRQAPGKEREMVASISYSGGNTYYADSVKGRFTISRDNAKNTVYLQMNSLKPEDTAVYYCNVLPNTGARGYYYWGQGTQVTVSS | low polyreactivity
QVQLVESGGGLVQAGGSLRLSCAASGRIFYFYAMVWYRQAPGKERELVAAISTSGGSTYYADSVKGRFTISRDNAKNTVYLQMNSLKPEDTAVYYCAARFRYYGSEYDYWGQGTQVTVSS | low polyreactivity
QVQLVESGGGLVQAGGSLRLSCAASGRIFYGNALGWYRHAPGKERELVATISSSGGRTTYADSVKGRFTISRDNAKNTVYLPMNSLKPEDTAVYYCAAQGYWTGYDYWGQGTQVTVSS | high polyreactivity
QVQLVESGGGLVQAGGSLRLSCAASGRIFYGNAMGWYRQAPGKERELVAAITRSGSSTYYADSVKGRFTISRDNAKNTVYLQMNSLKPEVTAVYYCAVKYFDYVGQYAYYYWGQGTQVTVSS | high polyreactivity
QVQLVESGGGLVQAGGSLRLSCAASGRIFYGNTMGWYRQAPGKERELVAAITIGDSTNYADSVKGRFTISRDNAKNTVYLQMNSLKPEDTEVYFCAKRNWWGYYKYDYWGQGTQVTVSS | low polyreactivity
QVQLVESGGGLVQAGGSLRLSCAASGRIFYGYAMGWYRQAPGKERELVAAISKSGTRTYYADSVKGRFTISRDNAKNTVYLQMNSLKPEDTAVFYCNARGYPYDTYNEYYYWGQGTQVTVSS | high polyreactivity
QVQLVESGGGLVQAGGSLRLSCAASGRIFYGYAMGWYRQAPGKERELVAAISWRGGRTYYADSVKGRFTISRDNAKNTVYLQMNSLKPEDTAVYYCNKDFPPQGQLRNMYYWGQGTQVTVSS | high polyreactivity
QVQLVESGGGLVQAGGSLRLSCAASGRIFYGYAMGWYRQAPGKERELVAGISYRGARTYYADSVKGRFTISRDNAKNTVYLQMNSLKPEDTAVYYCNAVPYYPFAFGALDYWGQGTQVTVSS | high polyreactivity
QVQLVESGGGLVQAGGSLRLSCAASGRIFYGYTMGWYREAPGIERELVASITIRGSRTYYADSVKGRFTISRDNAKNTVYLQMTSLKPEDTAVYYCAADFVPARTVHRYDYWGQGTQVTVSS | low polyreactivity
QVQLVESGGGLVQAGGSLRLSCAASGRIFYGYTMGWYRQAPGKERELVAAITQRGGNTHYADSVKGRFTISRDNGKNTVYLHMNRLKPEDTAVYYCAAKYYPYVRGVQYYYWGQGTQVTVSS | high polyreactivity
QVQLVESGGGLVQAGGSLRLSCAASGRIFYINAMGWYRQAPGKEMELVAAITGSVGSTYYADSVKGRFTISRDNAKNTVYLLMNSQKPEDTAVYYCAASDQPYNGGDGDYWGQGTQVTVSS | low polyreactivity

Sequence | polyreactivity (PSR sort gate)
QVQLVESGGGLVQAGGSLRLSCAASGRIFYINDMGCYRQAPGKEREFVASITGSGGRTYYADSVKGRFTISRDNAKNTVYLQMNSLKPEDTAVYYCNADLYVGYLYYLYDYWGQVTQVTVSS | low polyreactivity
QVQLVESGGGLVQAGGSLRLSCAASGRIFYKNAMGWYRQAPGKERELVATITYSDGTTYYADSVKGRFTISRDNAKNTVYLQMNSLKPEDTAVYYCAAQTDSVESDYWGQGTQVTVSS | low polyreactivity
QVQLVESGGGLVQAGGSLRLSCAASGRIFYKYAMGWYRQAPGKERELVAAISTGGTRTYYADSVKGRFTISRDNAKNTVYLQMNSLKPEDTAVYYCAARGGDKTYYYWGQGTQVTVSS | high polyreactivity
QVQLVESGGGLVQAGGSLRLSCAASGRIFYKYAMGWYRQAPGKERELVAAITTSGGSTYYADSVKGRFTISRDNAKNTVYLQMNSLKPEDTAVYYCARDLNGRFLTTGRGMDYWGQGTQVTVSS | high polyreactivity
QVQLVESGGGLVQAGGSLRLSCAASGRIFYLNVMGWYRQAPGKERELVAAITRRDVTTYADSVKGRFTISRDNAKNTVYLQMKSLKPEDTAFYYCNAVYYNWIGFDYWGQGTQVTVSS | low polyreactivity
QVQLVESGGGLVQAGGSLRLSCAASGRIFYLYAMGWYRQAPGKERELVAAITWSGGSTYYADSVKGRFTISRDNAKNTVYLQMNSLKPEDTAVYYCARDDAYSDFDYDYWGQGTQVTVSS | low polyreactivity
QVQLVESGGGLVQAGGSLRLSCAASGRIFYLYAMGWYRQAPGKERELVARITSGSGTYYADSVKGRFTISRDNAKNTVYLQMNSLKPEDTAVYYCAAREPGVGYVGHYTGLDYWGQGTQVTVSS | low polyreactivity
QVQLVESGGGLVQAGGSLRLSCAASGRIFYLYAMGWYRQAPGKERELVATINTSGGITYYADSVKGRFTISRDNAKNTVYLQMNSLKPEDTAVYYCNADWEWLYFYFRPGGYWGQGTQVTVSS | low polyreactivity
QVQLVESGGGLVQAGGSLRLSCAASGRIFYLYTMGWYRQAPGKEREFSTYYADSVKGRFTISRDNAKNTVYLQMNSLKPEDTAVYYCNKGSDGFTTGEGDYWGQGTQVTVSS | low polyreactivity
QVQLVESGGGLVQAGGSLRLSCAASGRIFYLYTMGWYRQAPGKERELVAASTRAGRTYYADSVKGRFTISRDNAKNTVYLQMNSLKPEDTAVYYCAAAFLSRVQGYDSWGQGTQVTVSS | high polyreactivity
QVQLVESGGGLVQAGGSLRLSCAASGRIFYNNAMGWYRQAPGKERELVAAIDWPGGSTDYADSVKGRFTISRDNAKNTVYLQMNSLKPEDTAVYYCVAGHVPYWHGNSYDYWGQGTQVTVSS | low polyreactivity
QVQLVESGGGLVQAGGSLRLSCAASGRIFYNNAMGWYRQAPGKERELVASITRNGGRTYYADSVKGRFTISRDNAKNTVYLKMNSLKREDTAVYYCAIDYSRGQIRAGAYEYWGQGTQVTVSS | high polyreactivity
QVQLVESGGGLVQAGGSLRLSCAASGRIFYPNAMGWYRQAPGKERELVASISRGGPTSYADSVKGRFTISRDNAKNTVYLQINSLKPEDTAVYDCAADVAWYRYRSYYWGQGTQVTVSS | high polyreactivity
QVQLVESGGGLVQAGGSLRLSCAASGRIFYPNTMGWYIQAPGKERELVAAISRSGGSTYYTDSVKGRFTISRDNAKNTVYLQMNSLKPEDTAVYYCATVPYESRYDYWGQGTQVTVSS | high polyreactivity
QVQLVESGGGLVQAGGSLRLSCAASGRIFYPYAMGWSRQAPGKERELVAAISSSAGITYYADSVKGRFTISRDNAKKTVYLQMNSLKPEDTAVYYCAKYPVRNPYGYRYDYWGQGTQVTVSS | high polyreactivity
QVQLVESGGGLVQAGGSLRLSCAASGRIFYPYAMGWYIQAPGKERELVADISIGGSTNYADSVKGRFTISRDNAKNTVYLQMNSLKPEDTAVYYCNAGGGFYGSTVEHDYWGQGTQVTVSS | low polyreactivity
QVQLVESGGGLVQAGGSLRLSCAASGRIFYPYAMGWYRQAPGKERELVAAITWSTGRTYYADSVKGRFTISRDNAKNTVYLQMNSLKPEDTAVYYCAATGTLKRRYGYWGQGTQVTVSS | high polyreactivity
QVQLVESGGGLVQAGGSLRLSCAASGRIFYPYAMGWYRQAPGKERELVGYSRGGSTNYADSVKGRFTISRDNAKNTVYLQMNSLKPEDTAVYYCARDVHRSGYLIFDYWGQGTQVTVSS | low polyreactivity
QVQLVESGGGLVQAGGSLRLSCAASGRIFYPYAMVWYRQAPGKERELVAGISFRDGSRYYADSVKGRFTISRDNAKNTVYLQMNSLKPEDTAFYYSAAVGQTHTTSPLSTKFDYWGQGTQVTVSS | low polyreactivity
QVQLVESGGGLVQAGGSLRLSCAASGRIFYPYFMGWYRQAPGKERELVAAISASGGRTYYADSVKGRFTISRDNSKNTVYLQMNSLKPEDTAVYYCNARTVPAGTLYDYWGQGTQVTVSS | low polyreactivity
QVQLVESGGGLVQAGGSLRLSCAASGRIFYPYSMGWYRQAPGKERELVATITYIGGSTYADSVKGRFTISRDNAKNTVYLQMNSLKPEDTAVYYCAASETYFRFPFGIYYYWGQGTQVTVSS | low polyreactivity
